Measured values reported in US20140256625A1, “ANTI-AMYLOIDOGENIC, ALPHA-HELIX BREAKING ULTRA-SMALL PEPTIDE THERAPEUTICS” (AGENCY FOR SCIENCE, TECHNOLOGY AND RESEARCH, priority 2011, published 2014).
Ends that are not written are not given here.

Molecular target: Ac-KE7 (Homo sapiens, UniProt P05067)
Test: Rheology of Ac-KE7 mixed with inhibitor (storage modulus, gel vs solution)
Format: physicochemical
Details: 1.5 mM Ac-KE7 mixed with inhibitor in 1:20 molar ratio, 25° C.
Description: Rheology. To determine the viscoelastic properties/behaviour, peptide-based hydrogels were subjected to dynamic time, strain and frequency sweep experiments using the ARES-G2 rheometer (TA Instruments, Piscataway, N.J.) with a 25.0 mm diameter stainless steel or titanium parallel plate geometry and a 0.8 mm or 1-2 mm gap distance. To ensure complete gelation and take account of the varying gelation speeds of different peptides at different concentrations, the rheology measurements were done 2 months after sample preparation. Oscillatory frequency sweep studies (measuring storage modulus (G′) vs. Angular frequency (ω)) were done at 0.1-100 rad/s using 1% strain. Oscillatory amplitude sweep studies (measuring storage modulus (G′) vs. oscillation strain % (γ)) were done using 0.01-100% strain with a constant angular frequency of 1 rad/s. All measurements were carried out at 25° C. […] The graphs display the storage moduli (G′ in Pa) as a function of (A) angular frequency (rad/sec) under 1% strain and (B) oscillation strain (%) at an angular frequency of 1 rad/sec at room temperature of 25° C. […] This can be seen from the rheological data, where the peptide-inhibitor solutions give a highly fluctuating curve for both the amplitude and frequency sweep measurements because they are in solution form; instead of a gel form.

Substance | hydrogel formation of Ac-KE7 (rheology)
Ac-LPE (Ac-Leu-Pro-Glu) [N-acetylated tripeptide Leu-Pro-Glu] | no gelation
Ac-LPG (Ac-Leu-Pro-Gly) [N-acetylated tripeptide Leu-Pro-Gly] | no gelation
